Target: Neonatal Fc Receptor (FcRn) (UniProt P55899)
Experiment: FcRn binding assay, BIACORE (SPR)

Kd: 2.34 µM
Substance: Dostarlimab, base degraded, pH 9.0, 40° C., 1 week (antibody)
